Test results reported in CN110606891A.

Target: 鼠CLDN18.2 (mCLDN18.2), claudin-18 isoform A2.1 [Mus musculus], NP_001181850.1 (mouse) (UniProt P56857)
Test: cell ELISA on mCLDN18.2+ cells (Table 23), background

UniProt P56857, sequence (P56857 other isoform, or with tags, fused parts or gaps, form in doubt): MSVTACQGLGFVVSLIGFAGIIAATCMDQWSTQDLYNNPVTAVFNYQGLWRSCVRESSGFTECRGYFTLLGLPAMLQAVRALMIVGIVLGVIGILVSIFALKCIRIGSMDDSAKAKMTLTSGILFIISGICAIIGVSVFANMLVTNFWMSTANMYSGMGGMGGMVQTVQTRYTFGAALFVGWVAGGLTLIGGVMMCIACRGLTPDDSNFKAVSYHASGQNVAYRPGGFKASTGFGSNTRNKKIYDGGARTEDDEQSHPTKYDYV

- Emax: 0.19
Substance: Neg IgG (和靶点没有结合的非特异性抗体) (antibody)
